For 1 substance, IC50 results are on record in patent US20200255516A1.

This assay has as its target Full-length human TIGIT on CHO cells overexpressing TIGIT (human) (UniProt Q495A1). Put plainly: FACS blocking assay on TIGIT-CHO cells; competitor CF633-labeled CD155-Fc at 2 ug/ml.

Full-length human TIGIT on CHO cells overexpressing TIGIT (human), sequence (Q495A1 22-244 limits assumed): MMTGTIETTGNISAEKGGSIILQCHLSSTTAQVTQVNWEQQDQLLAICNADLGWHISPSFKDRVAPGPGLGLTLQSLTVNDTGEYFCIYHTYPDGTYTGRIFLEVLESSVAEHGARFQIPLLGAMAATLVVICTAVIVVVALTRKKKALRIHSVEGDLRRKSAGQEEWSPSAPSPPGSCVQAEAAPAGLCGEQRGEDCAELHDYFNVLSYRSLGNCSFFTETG

human IgG4 antibody (hIgG4): the IC50 (commonly the midpoint of a concentration-inhibition curve) was above 10 µM.
